# Assay results from article PMC4010901 (The Journal of Experimental Medicine, 2014).
# Like-named read-outs stand apart in the source and are kept apart here.
# T1: recombinant mRGMb-HIS (R&D Systems) (mouse, UniProt Q7TQ33 49-415)
# T1 sequence (looked up): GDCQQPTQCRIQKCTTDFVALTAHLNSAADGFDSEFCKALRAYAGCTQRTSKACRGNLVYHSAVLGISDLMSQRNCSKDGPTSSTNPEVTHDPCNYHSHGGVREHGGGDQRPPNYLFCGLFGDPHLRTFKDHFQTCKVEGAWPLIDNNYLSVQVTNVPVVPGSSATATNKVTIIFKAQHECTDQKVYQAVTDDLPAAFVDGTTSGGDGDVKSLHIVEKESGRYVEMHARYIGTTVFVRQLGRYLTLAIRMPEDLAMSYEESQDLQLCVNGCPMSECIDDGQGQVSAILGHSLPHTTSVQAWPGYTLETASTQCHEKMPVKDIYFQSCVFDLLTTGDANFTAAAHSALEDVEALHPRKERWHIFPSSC
# T2: recombinant hRGMb-HIS (R&D Systems) (human, UniProt Q6NW40 46-413)
# T2 sequence (looked up): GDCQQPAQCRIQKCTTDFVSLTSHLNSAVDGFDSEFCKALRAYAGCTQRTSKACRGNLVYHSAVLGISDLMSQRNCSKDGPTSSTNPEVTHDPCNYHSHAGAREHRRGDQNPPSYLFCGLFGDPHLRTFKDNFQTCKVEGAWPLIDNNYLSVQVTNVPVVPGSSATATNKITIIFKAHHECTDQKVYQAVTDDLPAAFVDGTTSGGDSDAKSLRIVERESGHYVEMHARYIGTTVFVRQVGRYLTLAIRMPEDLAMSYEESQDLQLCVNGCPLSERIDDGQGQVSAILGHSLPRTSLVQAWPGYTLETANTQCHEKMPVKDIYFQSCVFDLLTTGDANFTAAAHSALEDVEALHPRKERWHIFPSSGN
# T3: RGMb (R&D Systems) immobilised for Biacore ( (mouse and human RGMb-HIS …, UniProt Q7TQ33 49-415))
# T3 sequence (looked up): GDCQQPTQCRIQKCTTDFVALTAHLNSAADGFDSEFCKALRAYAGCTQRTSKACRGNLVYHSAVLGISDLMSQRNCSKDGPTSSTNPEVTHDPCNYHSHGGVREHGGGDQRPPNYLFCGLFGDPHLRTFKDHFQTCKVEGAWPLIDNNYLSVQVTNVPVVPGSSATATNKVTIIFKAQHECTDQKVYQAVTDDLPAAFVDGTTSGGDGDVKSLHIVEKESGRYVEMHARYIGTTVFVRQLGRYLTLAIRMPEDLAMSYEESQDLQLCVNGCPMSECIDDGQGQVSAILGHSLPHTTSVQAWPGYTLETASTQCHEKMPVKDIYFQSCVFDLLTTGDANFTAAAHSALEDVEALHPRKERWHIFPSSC
# What was measured:
# [1] = molecular target: T1, recombinant mRGMb-HIS (R&D Systems); assay: ELISA
# [2] = molecular target: T1, recombinant mRGMb-HIS (R&D Systems); assay: ELISA; remark: listed apart in the source
# [3] = molecular target: T2, recombinant hRGMb-HIS (R&D Systems); assay: ELISA
# [4] = molecular target: T1, recombinant mRGMb-HIS (R&D Systems); assay: ELISA; remark: listed apart in the source
# [5] = molecular target: T2, recombinant hRGMb-HIS (R&D Systems); assay: ELISA; remark: listed apart in the source
# [6] = molecular target: T3, RGMb (R&D Systems) immobilised for …; assay: SPR
binder,measurement,setting,value
"recombinant mouse BMP-4 (R&D Systems) (ligand, UniProt P21275 293-408, looked up) SPKHHPQRSRKKNKNCRRHSLYVDFSDVGWNDWIVAPPGYQAFYCHGDCPFPLADHLNSTNHAIVQTLVNSVNSSIPKACCVPTELSAISMLYLDEYDKVVLKNYQEMVVEGCGCR",binding result,[1],binds
"recombinant mouse BMP-2 (Invitrogen) (ligand, UniProt P21274 281-394, looked up) QAKHKQRKRLKSSCKRHPLYVDFSDVGWNDWIVAPPGYHAFYCHGECPFPLADHLNSTNHAIVQTLVNSVNSKIPKACCVPTELSAISMLYLDENEKVVLKNYQDMVVEGCGCR",binding result,[2],binds
"hPD-L2-mIgG2a fusion protein (Fc fusion, human, UniProt Q9BQ51 20-220, looked up) LFTVTVPKELYIIEHGSNVTLECNFDTGSHVNLGAITASLQKVENDTSPHRERATLLEEQLPLGKASFHIPQVQVRDEGQYQCIIIYGVAWDYKYLTLKVKASYRKINTHILKVPETDEVELTCQATGYPLAEVSWPNVSVPANTSHSRTPEGLYQVTSVLRLKPPPGRNFSCVFWNTHVRELTLASIDLQSQMEPRTHPT",binding result,[3],binds
same,binding result,[4],binds
"mPD-L2-hIgG1/IgA fusion protein (Fc fusion, mouse, UniProt Q9WUL5 20-221, looked up) LFTVTAPKEVYTVDVGSSVSLECDFDRRECTELEGIRASLQKVENDTSLQSERATLLEEQLPLGKALFHIPSVQVRDSGQYRCLVICGAAWDYKYLTVKVKASYMRIDTRILEVPGTGEVQLTCQARGYPLAEVSWQNVSVPANTSHIRTPEGLYQVTSVLRLKPQPSRNFSCMFWNAHMKELTSAIIDPLSRMEPKVPRTW",binding result,[5],binds
"mPD-L2-hIgG (R&D Systems) (Fc fusion, mouse, UniProt Q9WUL5 20-221, looked up) LFTVTAPKEVYTVDVGSSVSLECDFDRRECTELEGIRASLQKVENDTSLQSERATLLEEQLPLGKALFHIPSVQVRDSGQYRCLVICGAAWDYKYLTVKVKASYMRIDTRILEVPGTGEVQLTCQARGYPLAEVSWQNVSVPANTSHIRTPEGLYQVTSVLRLKPQPSRNFSCMFWNAHMKELTSAIIDPLSRMEPKVPRTW",Kd,[6],48.5 nM
